Assay results: patent US8765444 (BOARD OF TRUSTEES OF THE UNIVERSITY OF ILLINOIS, dated 2014)

T1: TBK1 (as used in Example 6; construct not named) (Homo sapiens (Human), UniProt Q9UHD2 1-729)
T1 construct: also called HA-TBK1 (constructed, probably the one used)
T1 sequence: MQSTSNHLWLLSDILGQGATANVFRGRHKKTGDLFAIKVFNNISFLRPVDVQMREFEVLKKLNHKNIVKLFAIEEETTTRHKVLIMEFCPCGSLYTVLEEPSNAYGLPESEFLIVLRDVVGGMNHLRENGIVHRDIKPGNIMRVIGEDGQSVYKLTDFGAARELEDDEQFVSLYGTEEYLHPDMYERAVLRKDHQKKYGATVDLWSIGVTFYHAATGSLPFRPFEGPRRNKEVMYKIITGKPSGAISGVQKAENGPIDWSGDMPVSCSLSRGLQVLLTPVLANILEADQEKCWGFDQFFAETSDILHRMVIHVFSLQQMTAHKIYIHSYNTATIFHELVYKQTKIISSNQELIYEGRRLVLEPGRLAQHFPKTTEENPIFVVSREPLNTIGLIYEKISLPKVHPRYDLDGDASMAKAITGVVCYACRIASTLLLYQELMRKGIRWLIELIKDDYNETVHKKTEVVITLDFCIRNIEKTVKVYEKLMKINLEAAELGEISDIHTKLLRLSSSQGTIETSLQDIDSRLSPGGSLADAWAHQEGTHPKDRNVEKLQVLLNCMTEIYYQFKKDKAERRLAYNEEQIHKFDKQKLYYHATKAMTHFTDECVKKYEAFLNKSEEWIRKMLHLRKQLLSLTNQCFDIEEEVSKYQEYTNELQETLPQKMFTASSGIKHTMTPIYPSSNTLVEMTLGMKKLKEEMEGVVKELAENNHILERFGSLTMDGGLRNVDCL

T2: HA-γ134.5 (HSV-1, UniProt P08353 1-263)
T2 sequence: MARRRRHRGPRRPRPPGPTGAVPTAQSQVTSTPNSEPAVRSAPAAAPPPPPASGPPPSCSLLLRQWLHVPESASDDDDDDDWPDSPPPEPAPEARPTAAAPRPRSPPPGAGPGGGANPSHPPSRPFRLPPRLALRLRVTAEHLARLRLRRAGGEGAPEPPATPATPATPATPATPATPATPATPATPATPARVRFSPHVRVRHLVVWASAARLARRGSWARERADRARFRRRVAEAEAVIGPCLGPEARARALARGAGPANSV

B1: FLAG-γ134.5 Δ106 (other)
chain: MARRRRHRGPRRPRPPGPTGAVPTAQSQVTSTPNSEPAVRSAPAAAPPPPPASGPPPSCSLLLRQWLHVPEPPGAGPGGGANPSHPPSRPFRLPPRLALRLRVTAEHLARLRLRRAGGEGAPEPPATPATPATPATPATPATPATPATPATPATPARVRFSPHVRVRHLVVWASAARLARRGSWARERADRARFRRRVAEAEAVIGPCLGPEARARALARGAGPANSV
notes: the printed limits overlap with the neighbouring deletions, so the exact junction is uncertain
B2: FLAG-dN200, a truncated form of Ebola VP35 (other)
chain: NNLNSTTSLTEENFGKPDISAKDLRNIMYDHLPGFGTAFHQLVQVICKLGKDSNSLDIIHAEFQASLAEGDSPQCALIQITKRVPIFQDAAPPVIHIRSRGDIPRACQKSLRPVPPSPKIDRGWVCVFQLQDGKTLGLKI
notes: also called control protein dN200

Key:
[1] = biological target: T1, TBK1 (as used in Example 6; construct …); assay: co-immunoprecipitation from transfected 293T cells
HA-γ134.5 = biological target: T2, HA-γ134.5; assay: co-immunoprecipitation from transfected 293T cells

Binder | binding result [1] | binding result (HA-γ134.5)
B1 | no binding | 
B2 |  | no binding
